Consider 1 molecule from US20230391887A1.

A word on the Kd: it is the constant that tells how readily two partners part at equilibrium. Read a high Kd as weaker binding. The term koff denotes the first-order rate constant of dissociation. Low values mean slow dissociation, high ones fast dissociation. One may read the kon as the second-order rate constant of association. A high value points to faster complex formation. As usually defined, the half-life is the time needed for the level to fall by half in the phase considered. Lower therefore signals fast loss.

For experiment [1], the target named is meditope-enabled Trastuzumab v2.0 (83E meditope enabled antibody trastuzumab). In words: SPR, antibody immobilized at 750 RU, 37 C, 1:1 fit. On the technique in general: In SPR one partner is held on a chip, and binding of the other changes the refractive index at the surface.
Experiment [2] has the same target. The experiment in a line: SPR, antibody immobilized at 150 RU, 37 C, 1:1 fit.
Experiment [3] has the same target. The experiment in a line: SPR, antibody immobilized at 1500 RU, 37 C.
The target is the same in experiment [4]. In words: SPR, antibody immobilized at 1500 RU, 37 C, 1:1 fit.

B1: trivalent meditope (TVM) (protein)
chain: GGSAAPSSAPSPSAPCQFDLSTRRLSCGGASPAASPSAPSSPAPKAPSAAPSSAPSPSAPGGCQFDLSTRRLSCGGASPAASPSAPSSPAPKAPSAAPSSAPSPSAPGGCQFDLSTRRLSCGGSPSAPSSPSSPKLPETG
In experiment [1], B1 returned a Kd of 14 nM, a koff of 0.00014 s⁻¹, a kon of 10000 M⁻¹ s⁻¹ and a t1/2 of 1.3 h. Also, in experiment [2], the Kd worked out at 51.2 nM, the koff worked out at 0.00045 s⁻¹, the kon amounted to 8700 M⁻¹ s⁻¹ and the t1/2 worked out at 0.4 h. Besides, in experiment [3], the fold improvement of half-life against the monovalent meditope is above 30 fold and the half-life came out at 2.42 h. In experiment [4], this molecule displayed a dissociation constant (Kd) of 8.2 nM, an off-rate constant (koff) of 8e-05 s⁻¹, a kon of 9800 M⁻¹ s⁻¹ and a t1/2 of 2.4 h.
